These results are taken from patent publication US20240350586A1 (TSINGHUA UNIVERSITY, published 2024).

One assay has as its target T1, HA-CCT6 (human, UniProt P40227 2-531).
T1 construct: Amplified from HEK293T cDNA; not shown: N-terminal HA tag
Kind of assay: co-IP with T7-LC3C in HEK293T. Here is the method:
(§1) The data are representative of three independent experiments. [0146] […] The data are representative of three independent experiments. [0147] […] The data are representative of three independent experiments. [0148] […] The interaction of the peptides with T7-GABARAP or T7-GABARAPL1 proteins was analyzed by in vitro pull-down. The data are representative of three independent experiments. [0149] […] The data are representative of three independent experiments. [0150] […] [0151] (K) Quantification of Q103-HTT-GFP area/DAPI area (mean±SEM) as shown in [0152] (J). 48 h represents IB accumulation stage and 72 h represents clearance stage. P values are indicated (two-tailed t test, >20 views from three independent experiments). [0153] […] The data are representative of three independent experiments. [0154] […] The data are representative of three independent experiments. [0155] […] The data are representative of three independent experiments.
(§2) Co-immunoprecipitation was performed essentially as described before. In brief, 24 h after transfection, the cells were collected and lysed on ice for 30 min in co-IP buffer (50 mM Tris/HCl pH 7.4, 150 mM NaCl, 1 mM EDTA, 0.5% NP40) with protease inhibitor mixture, and the lysates were cleared by centrifugation. The resulting supernatants were incubated with indicated agarose or magnetic beads and rotated at 4° C. for 3 h. The agarose was washed five times with co-IP buffer.

The next assay addresses T2, HA-CCT5 (human, UniProt P48643 2-541).
T2 construct: not shown: N-terminal HA tag
Kind of assay: co-IP with T7-LC3C in HEK293T. On the procedure:
as §1, §2

The target of another assay is T3, HSPA9-HA (Homo sapiens (Human), UniProt P38646 1-679, limits assumed).
T3 construct: Plasmid pCMV3-HSPA9-HA (SinoBiological HG16926-CY); also called long-form of HSPA9; not shown: C-terminal HA tag
Kind of assay: co-IP with T7-LC3C in HEK293T. On the procedure:
as §1, §2

The target in the next assay is T4, HA-CCT3 (human, UniProt P49368 1-545).
T4 construct: Amplified from HEK293T cDNA; not shown: N-terminal HA tag
T4 sequence: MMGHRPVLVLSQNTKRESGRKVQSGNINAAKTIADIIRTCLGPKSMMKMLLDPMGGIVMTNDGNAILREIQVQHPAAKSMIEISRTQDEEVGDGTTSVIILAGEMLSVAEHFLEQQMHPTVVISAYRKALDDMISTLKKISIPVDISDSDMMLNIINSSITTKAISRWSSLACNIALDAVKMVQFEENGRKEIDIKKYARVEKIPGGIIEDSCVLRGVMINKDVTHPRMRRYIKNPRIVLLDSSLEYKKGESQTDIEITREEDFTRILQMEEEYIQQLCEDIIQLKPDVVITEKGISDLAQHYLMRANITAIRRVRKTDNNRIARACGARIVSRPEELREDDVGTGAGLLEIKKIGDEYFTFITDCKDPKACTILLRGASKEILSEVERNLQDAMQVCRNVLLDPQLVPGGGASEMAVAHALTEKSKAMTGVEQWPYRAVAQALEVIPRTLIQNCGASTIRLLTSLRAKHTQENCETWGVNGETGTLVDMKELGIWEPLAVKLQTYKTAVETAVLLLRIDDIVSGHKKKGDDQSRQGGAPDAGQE
Kind of assay: co-IP with T7-LC3C in HEK293T. Here is the method:
as §1, §2

The next assay has as its target T5, HSP90AB1-HA (Homo sapiens (Human), UniProt P08238 2-724).
T5 construct: Plasmid pCDNA3-HSP90AB1-HA (addgene 22487); not shown: C-terminal HA tag
Kind of assay: co-IP with T7-LC3C in HEK293T. On the procedure: as §1, §2

The next assay concerns the target T6, HA-CCT1 (human, UniProt P17987 1-556).
T6 construct: Amplified from HEK293T cDNA; not shown: N-terminal HA tag
Kind of assay: co-IP with T7-LC3C in HEK293T. Here is the method:
as §1, §2

In a further assay the target is T7, HA-CCT8 (human, UniProt P50990 2-548).
T7 construct: not shown: N-terminal HA tag
T7 sequence (looked up): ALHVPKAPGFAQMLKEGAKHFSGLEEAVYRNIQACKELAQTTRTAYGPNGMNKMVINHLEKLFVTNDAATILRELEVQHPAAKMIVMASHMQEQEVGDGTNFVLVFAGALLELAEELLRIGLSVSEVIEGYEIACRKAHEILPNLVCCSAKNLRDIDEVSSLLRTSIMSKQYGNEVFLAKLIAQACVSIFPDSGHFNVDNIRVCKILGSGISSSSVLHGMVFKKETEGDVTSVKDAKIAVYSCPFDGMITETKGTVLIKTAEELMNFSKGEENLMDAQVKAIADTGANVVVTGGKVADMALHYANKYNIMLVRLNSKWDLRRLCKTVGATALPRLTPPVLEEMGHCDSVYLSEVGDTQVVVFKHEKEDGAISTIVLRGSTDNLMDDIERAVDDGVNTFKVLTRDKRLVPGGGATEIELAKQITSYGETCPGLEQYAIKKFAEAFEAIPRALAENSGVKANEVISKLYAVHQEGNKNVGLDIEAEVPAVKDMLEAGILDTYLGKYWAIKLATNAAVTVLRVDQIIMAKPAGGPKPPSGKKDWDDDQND
Kind of assay: co-IP with T7-LC3C in HEK293T. On the procedure:
as §1, §2

Assay [1] addresses T8, CCT2 D2-P7 fusion protein (Homo sapiens (Human), UniProt P78371 217-519).
T8 construct: D2 domain of CCT2 fused to the P7 peptide of CCT2; also called HA-D2-P7; not shown: HA tag of plasmid pFUGW-HA-D2-P7
T8 sequence: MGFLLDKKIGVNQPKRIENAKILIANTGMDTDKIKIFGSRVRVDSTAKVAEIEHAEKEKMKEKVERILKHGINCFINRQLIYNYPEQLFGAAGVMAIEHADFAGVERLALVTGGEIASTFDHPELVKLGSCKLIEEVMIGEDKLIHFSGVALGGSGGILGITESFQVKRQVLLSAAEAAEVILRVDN
The assay can be described thus: co-IP. On the procedure:
as §2, with “buffer. As for the BFP-tagged Q103, the supernatants were incubated with rabbit anti-BFP antibodies and Protein A/G PLUS-Agarose according to the manufacturers' protocol. After washing, 2×SDS loading buffer was added to the beads, and immunoblot was performed as described previously.” for “buffer.”

T1 sequence (P40227 2-531 limits assumed): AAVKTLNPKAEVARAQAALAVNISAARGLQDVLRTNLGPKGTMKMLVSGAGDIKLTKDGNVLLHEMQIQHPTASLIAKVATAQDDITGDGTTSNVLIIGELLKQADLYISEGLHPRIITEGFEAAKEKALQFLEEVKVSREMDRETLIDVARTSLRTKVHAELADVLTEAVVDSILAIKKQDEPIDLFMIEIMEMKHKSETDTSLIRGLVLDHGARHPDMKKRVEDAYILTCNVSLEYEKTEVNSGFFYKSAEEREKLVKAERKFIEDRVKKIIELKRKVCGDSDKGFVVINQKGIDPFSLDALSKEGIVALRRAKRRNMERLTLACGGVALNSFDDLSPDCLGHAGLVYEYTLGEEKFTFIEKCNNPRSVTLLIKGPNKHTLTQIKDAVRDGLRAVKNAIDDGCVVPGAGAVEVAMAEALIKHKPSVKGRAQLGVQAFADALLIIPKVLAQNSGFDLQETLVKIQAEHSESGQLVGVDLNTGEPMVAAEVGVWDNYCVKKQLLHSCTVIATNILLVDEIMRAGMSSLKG
T2 sequence (P48643 2-541 limits assumed): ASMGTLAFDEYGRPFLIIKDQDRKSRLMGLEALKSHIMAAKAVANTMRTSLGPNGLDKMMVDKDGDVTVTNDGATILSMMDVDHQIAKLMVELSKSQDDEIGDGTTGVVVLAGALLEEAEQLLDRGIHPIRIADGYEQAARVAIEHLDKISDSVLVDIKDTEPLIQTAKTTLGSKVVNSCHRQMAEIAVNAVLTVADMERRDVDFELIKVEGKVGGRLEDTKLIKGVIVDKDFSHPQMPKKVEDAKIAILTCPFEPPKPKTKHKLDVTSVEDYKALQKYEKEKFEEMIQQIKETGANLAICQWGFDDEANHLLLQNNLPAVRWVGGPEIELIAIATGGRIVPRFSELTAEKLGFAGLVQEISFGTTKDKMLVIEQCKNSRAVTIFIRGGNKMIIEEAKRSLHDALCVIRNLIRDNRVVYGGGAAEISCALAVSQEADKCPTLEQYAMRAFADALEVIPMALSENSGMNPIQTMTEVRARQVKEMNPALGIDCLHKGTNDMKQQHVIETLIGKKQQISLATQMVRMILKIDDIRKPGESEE
T5 sequence (P08238 2-724 limits assumed): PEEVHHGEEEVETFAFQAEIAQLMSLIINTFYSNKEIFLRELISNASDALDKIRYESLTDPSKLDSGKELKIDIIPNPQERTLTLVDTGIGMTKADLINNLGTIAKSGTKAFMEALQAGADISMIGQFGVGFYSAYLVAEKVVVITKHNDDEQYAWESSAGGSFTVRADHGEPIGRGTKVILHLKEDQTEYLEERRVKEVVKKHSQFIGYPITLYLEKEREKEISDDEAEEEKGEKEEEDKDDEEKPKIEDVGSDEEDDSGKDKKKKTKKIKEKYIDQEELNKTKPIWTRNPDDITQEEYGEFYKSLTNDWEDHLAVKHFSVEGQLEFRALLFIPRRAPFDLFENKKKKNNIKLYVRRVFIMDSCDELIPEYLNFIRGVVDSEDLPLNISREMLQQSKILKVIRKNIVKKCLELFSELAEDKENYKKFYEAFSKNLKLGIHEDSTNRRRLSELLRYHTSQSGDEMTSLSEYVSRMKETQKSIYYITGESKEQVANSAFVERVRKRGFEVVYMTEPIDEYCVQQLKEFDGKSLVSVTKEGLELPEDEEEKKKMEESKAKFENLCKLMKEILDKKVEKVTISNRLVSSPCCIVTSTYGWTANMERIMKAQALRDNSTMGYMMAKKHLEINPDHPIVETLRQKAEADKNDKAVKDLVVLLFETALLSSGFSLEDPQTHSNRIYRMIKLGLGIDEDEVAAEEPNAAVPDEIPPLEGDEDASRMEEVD
T6 sequence (P17987 whole entry): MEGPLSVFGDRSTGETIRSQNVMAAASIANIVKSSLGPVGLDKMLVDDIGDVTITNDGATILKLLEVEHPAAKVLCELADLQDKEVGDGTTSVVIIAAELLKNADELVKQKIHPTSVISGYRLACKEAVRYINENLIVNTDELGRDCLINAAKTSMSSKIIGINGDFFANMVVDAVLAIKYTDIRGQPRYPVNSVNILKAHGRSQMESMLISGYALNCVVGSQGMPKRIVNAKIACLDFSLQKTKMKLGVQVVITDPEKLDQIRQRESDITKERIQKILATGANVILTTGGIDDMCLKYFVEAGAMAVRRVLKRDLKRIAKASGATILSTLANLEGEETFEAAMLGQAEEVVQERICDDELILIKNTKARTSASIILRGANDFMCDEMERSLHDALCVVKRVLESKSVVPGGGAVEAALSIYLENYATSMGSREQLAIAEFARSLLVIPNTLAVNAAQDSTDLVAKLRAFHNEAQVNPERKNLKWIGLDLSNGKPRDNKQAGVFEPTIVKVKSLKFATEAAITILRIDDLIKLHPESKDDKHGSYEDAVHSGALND
T3 sequence (P38646 whole entry): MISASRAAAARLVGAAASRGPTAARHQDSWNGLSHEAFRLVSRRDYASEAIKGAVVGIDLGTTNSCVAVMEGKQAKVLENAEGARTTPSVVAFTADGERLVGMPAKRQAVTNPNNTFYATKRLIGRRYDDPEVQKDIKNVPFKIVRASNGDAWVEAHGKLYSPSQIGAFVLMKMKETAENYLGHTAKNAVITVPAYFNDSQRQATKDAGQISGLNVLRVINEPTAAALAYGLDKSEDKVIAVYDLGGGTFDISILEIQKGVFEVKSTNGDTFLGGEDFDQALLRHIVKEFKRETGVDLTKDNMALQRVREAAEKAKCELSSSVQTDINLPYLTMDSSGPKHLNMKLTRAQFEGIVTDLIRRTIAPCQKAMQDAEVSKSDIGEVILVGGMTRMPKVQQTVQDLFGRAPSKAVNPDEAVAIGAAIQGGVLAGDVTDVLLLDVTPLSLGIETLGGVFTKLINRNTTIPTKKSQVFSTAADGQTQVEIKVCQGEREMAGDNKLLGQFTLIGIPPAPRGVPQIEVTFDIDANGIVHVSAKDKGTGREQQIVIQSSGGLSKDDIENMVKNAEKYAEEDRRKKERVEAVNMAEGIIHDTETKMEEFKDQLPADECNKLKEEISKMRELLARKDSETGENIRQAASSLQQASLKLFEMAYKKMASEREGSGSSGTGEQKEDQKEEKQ

B1: T7-LC3C (expressed in cells) (other, UniProt Q9BXW4 1-126, looked up)
chain: MPPPQKIPSVRPFKQRKSLAIRQEEVAGIRAKFPNKIPVVVERYPRETFLPPLDKTKFLVPQELTMTQFLSIIRSRMVLRATEAFYLLVNNKSLVSMSATMAEIYRDYKDEDGFVYMTYASQETFG
notes: Expressed from pCDNA3-T7-LC3C; not shown: T7 tag
With B1, the binding result is recorded as “binds” with HA-CCT6; “no binding” with HA-CCT5; “binds” with HSPA9-HA; “binds” in the assay with HA-CCT3; “no binding” in the assay with HSP90AB1-HA; “binds” with HA-CCT1. Moreover, the binding result is on record as “no binding” in the assay with HA-CCT8 and “binds” in assay [1].
